Measurements from patent US20240035012A1.

What was measured:
[1] = target: prefusion stabilized trimeric SARS-CoV-2 spike protein ectodomain (SARS-CoV-2) (UniProt P0DTC2)
[2] = target: prefusion stabilized trimeric SARS-CoV-2 spike protein ectodomain (SARS-CoV-2) (UniProt P0DTC2); remark: listed apart in the source

ACE2-short-3HB (receptor)
Kd [1]: 3.9 nM | IC50 [2]: 2.9 nM
